For the test, the target named is human FcRn (complex of His-tagged FcRn alpha chain with beta 2 microglobulin) (human) (UniProt P55899). Description: SPR (Biacore), human FcRn on chip, pH 6.0. (In general: Surface plasmon resonance follows binding to a sensor surface in real time, without labels.)

The text below walks through data of US8883973B2.

Turning to 428L/434S IgG1 anti-VEGF antibody, the fold FcRn binding (fold of Ka* relative to WT) was found to be 17.3 fold.

Consider 257N IgG1 anti-VEGF antibody, for which the fold FcRn binding (fold of Ka* relative to WT IgG1) came out at 3.5 fold.

434S IgG1 anti-VEGF antibody yielded a fold FcRn binding (fold of Ka* relative to WT) of 3.8 fold. For the substance 257L IgG1 anti-VEGF antibody, the fold FcRn binding (fold of Ka* relative to WT IgG1) is 3.4 fold.
